Publication PMC6286387, “Physical and thermodynamic characterization of the rice gibberellin receptor/gibberellin/DELLA protein complex” (Scientific Reports, 2018)

Key:
[1] = target: SLR1(M1-E104), Trx-free (rice (Oryza sativa)) (UniProt Q7G7J6); test: ITC; 10 μl aliquants of 400 μM OsGID1/GA3 into 1.4482 ml of 50 μM SLR1 variant, 30 °C, 20 mM sodium phosphate (pH 7.5), 150 mM NaCl, 2.0 mM β-ME, 0.1 mM GA3
[2] = target: T1, SLR1(M28-A112), Trx-free (rice (Oryza sativa), UniProt Q7G7J6 28-112); test: as above; details: both partners purified
T1 construct: DELLA protein SLR1 of rice (Oryza sativa), residues M28-A112; 13C/15N-labelled for the NMR spectra; also called SLR(M28-A112); source: E. coli, purified (HiTrap Chelating, Superdex 200; thrombin, HiTrap Chelating, Superdex 75); not shown: Trx, N-terminal, cleaved; His6, N-terminal, cleaved
T1 sequence (looked up): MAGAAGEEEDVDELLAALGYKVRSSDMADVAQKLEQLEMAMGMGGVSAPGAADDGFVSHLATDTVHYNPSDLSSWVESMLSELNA

[3] = target: T1, SLR1(M28-A112), Trx-free; test: as above; details: both partners purified; remark: listed apart in the source
[4] = target: T2, SLR1(M1-H327) (rice (Oryza sativa), UniProt Q7G7J6 1-327); test: as above; details: both partners purified
T2 construct: DELLA protein SLR1 of rice (Oryza sativa), residues M1-H327; Named without Trx in the ITC experiments; removal of the tag is told in general in the methods; also called SLR(M1-H327); source: E. coli, purified (HiTrap Chelating, Superdex 200; thrombin, HiTrap Chelating, Superdex 75); not shown: Trx, N-terminal, cleaved; His6, N-terminal, cleaved
T2 sequence (looked up): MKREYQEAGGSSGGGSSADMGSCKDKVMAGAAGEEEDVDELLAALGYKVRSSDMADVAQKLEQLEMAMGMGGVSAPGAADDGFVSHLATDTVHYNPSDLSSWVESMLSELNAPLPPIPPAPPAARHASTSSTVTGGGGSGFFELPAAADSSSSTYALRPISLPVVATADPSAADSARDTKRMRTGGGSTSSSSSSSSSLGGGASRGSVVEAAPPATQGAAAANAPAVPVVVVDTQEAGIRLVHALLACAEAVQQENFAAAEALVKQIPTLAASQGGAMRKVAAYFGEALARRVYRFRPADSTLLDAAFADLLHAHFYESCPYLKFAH

[5] = target: T3, SLR1(M1-A172) (rice (Oryza sativa), UniProt Q7G7J6 1-172); test: as above; details: both partners purified
T3 construct: DELLA protein SLR1 of rice (Oryza sativa), residues M1-A172; Named without Trx in the ITC experiments; removal of the tag is told in general in the methods; also called SLR(M1-A172); source: E. coli, purified (HiTrap Chelating, Superdex 200; thrombin, HiTrap Chelating, Superdex 75); not shown: Trx, N-terminal, cleaved; His6, N-terminal, cleaved
T3 sequence (looked up): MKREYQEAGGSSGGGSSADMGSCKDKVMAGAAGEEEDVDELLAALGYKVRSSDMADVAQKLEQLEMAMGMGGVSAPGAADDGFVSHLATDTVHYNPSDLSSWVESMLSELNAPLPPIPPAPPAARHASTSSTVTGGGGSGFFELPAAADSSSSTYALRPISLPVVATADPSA

[6] = target: T4, SLR1(M28-A112) ΔSPACE(G69-F83) (rice (Oryza sativa), UniProt Q7G7J6 28-112, ΔSPACE(G69-F83)); test: as above; details: both partners purified
T4 construct: DELLA protein SLR1 of rice (Oryza sativa), residues M28-A112 with G69-F83 deleted; Named without Trx in the ITC experiments; removal of the tag is told in general in the methods; also called SLR(M28-A112)ΔSPACE; source: E. coli, purified (HiTrap Chelating, Superdex 200; thrombin, HiTrap Chelating, Superdex 75); not shown: Trx, N-terminal, cleaved; His6, N-terminal, cleaved
T4 sequence (looked up): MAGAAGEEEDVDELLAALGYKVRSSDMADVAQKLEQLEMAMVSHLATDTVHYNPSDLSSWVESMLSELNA

[7] = target: T1, SLR1(M28-A112), Trx-free; test: SAXS; Trx-free proteins, about 3.0 mg/ml, 20 mM sodium phosphate (pH 7.5), 150 mM NaCl, 2.0 mM β-ME, 0.1 mM GA3, 25 °C; mass from I(0), Guinier and Kratky plots; details: both partners purified
[8] = target: the molecule itself; test: as above

Ka [1]: 11000 M⁻¹
dH [1]: -8.4 kcal/mol
stoichiometry N [1]: 1
dH [2]: -8.44 kcal/mol
stoichiometry N [2]: 0.92
dH [3]: -6.9 kcal/mol
stoichiometry N [3]: 1.06
dH [4]: -7.1 kcal/mol
stoichiometry N [4]: 1.01
dH [5]: -6.8 kcal/mol
stoichiometry N [5]: 1.06
dH [6]: -8.3 kcal/mol
stoichiometry N [6]: 0.5
stoichiometry N [7]: 1
B1: OsGID1 (rice gibberellin receptor GID1), Trx-free, used as the OsGID1/GA3 complex (receptor, rice (Oryza sativa), UniProt Q6L545 1-354, looked up)
chain: MAGSDEVNRNECKTVVPLHTWVLISNFKLSYNILRRADGTFERDLGEYLDRRVPANARPLEGVSSFDHIIDQSVGLEVRIYRAAAEGDAEEGAAAVTRPILEFLTDAPAAEPFPVIIFFHGGSFVHSSASSTIYDSLCRRFVKLSKGVVVSVNYRRAPEHRYPCAYDDGWTALKWVMSQPFMRSGGDAQARVFLSGDSSGGNIAHHVAVRAADEGVKVCGNILLNAMFGGTERTESERRLDGKYFVTLQDRDWYWKAYLPEDADRDHPACNPFGPNGRRLGGLPFAKSLIIVSGLDLTCDRQLAYADALREDGHHVKVVQCENATVGFYLLPNTVHYHEVMEEISDFLNANLYY
notes: Gibberellin receptor GID1 of rice (Oryza sativa); theoretical MW of the dimer printed as 79.2 kDa; The printed mass (39.6 kDa a monomer) fits the whole protein; source: recombinant, purified
stoichiometry N [8]: 2
